Data reported in the DeepSol protein solubility set.

test: soluble on expression in E. coli; label from the status in PepcDB or PDB records

Soluble on expression in E. coli, soluble:
GMMNKPAPRELEVIRSTYITPHMLRITLGGAGLAGFPADQESAYIKLLFPQAGERPLMRTYTIRQQRDDEIDVDFVLHDTDGPASSWAKTAQVGELIQIGGPGLKKLINFEADWFLLAGDMTALPAISVNLAKLPNNAVGYAVIEVLSEADIQPLVHPEHVELHWVINPEADPEGRPLVERIAQLPWLAGEPAVWIACEFNSMRALRRHFKQAHALPKSHFYTSSYWKIGCNEGEHKLVKQEDEQLENGASV
GMMNTTQEGRQRLAERLADTVAQALEADLAKRERALLVVSGGSTPKPFFTSLAAKALPWARVDVTLADERWVTADDADSNARLVRETLLVGPAAEACFHPLTTDDDTPEAGVETVAERLESLPWPASAVILGMGGDGHTASLFPDSEQLATALETTSAAVVVHAPSVPQARITLSASRLADAGLHVLHITGNDKRRVLAEALAGDDVRQLPIRAFLSQPIATYWAP
GMPTLEMPVAAVLDSTVGSSEALPDFTSDRYKDAYSRINAIVIEGEQEAHDNYIAIGTLLPDHVEELKRLAKMEMRHKKGFTACGKNLGVEADMDFAREFFAPLRDNFQTALGQGKTPTCLLIQALLIEAFAISAYHTYIPVSDPFARKITEGVVKDEYTHLNYGEAWLKANLESCREELLEANRENLPLIRRMLDQVAGDAAVLQMDKEDLIEDFLIAYQESLTEIGFNTREITRMAAAALVS
GMQGKKFISPGAWFSMNYPSDWNEFEDGEGSFLFYNPDVWTGNFRISAFKGNASYGKDAIRQELKENDSASLVKIGTWDCAYSKEMFQEEGTYYTSHLWITGTGNIAFECSFTVPKGGSAKEAEEVIATLEARKEGEKYPAELIPVRLSEIYQINEGYEWVVSTVKQELKKDFQGVEEDLEKIQQVIDSGKISPKKKDEWLAIGITVCAILTNEVEGMEWKTLIDGNREVPVLEYQGRTIDPMKIAWSKVKAGQPCNIAEAYQSAIDHH
GMQMNNHIRLRKAEGKWVIRTDSAVLGETLNAIELTEGSRDPVIYFPREDVAMVMFDKSEKVTACPLKGEASYYSIVGASGTLKDAAWSYESPKEGLEAIAGYLAFAPDCTKVGQY
GMQPETSAQYQHRFSQAIRGGEAADGLPQDRLNVYIRLIRNNIHSFIDRCYTETRQYFDSKEWSRLKEGFVRDARAQTPYFQEIPGEFLQYCQSLPLSDGILALMDFEYTQLLAEVAQIPDIPDIHYSNDSKYTPSPAAFIRQYRYDVTHDLQEAETALLIWRNAEDDVMYQTLDGFDMMLLEIMGSSALSFDTLAQTLVEFMPKADNWKNILLGKWSGWIEQRIIIPSLSAISENMEGNSPSQNHLSA
GMQTPALIIVTGHPATGKTTLSQALATGLRLPLLSKDAFKEVMFDGLGWSDREWSRRVGATAIMMLYHTAATILQSGQSLIMESNFRVDLDTERMQNLHTIAPFTPIQIRCVASGDVLVERILSRIAQGARHPGHCDDRSPADLELVRSRGDIPPLPLGGPLLTVDTTFPEQIDMNAIVQWVRQHLQSGTAFL
GMSEDHPLDRPVWNSLGGPQSELDVASGNLRRLDPAYGPFAAAAPGAEAGLASLLQGDADEIWLVEPEPVAPPPGTRVIRVAPLLQMIADGPVPSFDDPGIVALGETDVPEMTALALATEPGPWASGTWRYGQFYGVRIDGRLAAMAGERMRPAPNLAEVSGVCTWPEYRGRGLAARLIRKVIAGMAARGEVPYLHSYASNASAIRLYESLGFRARRAMTATLLGKST
GMSLIPEIDAFLGCPTPDAWIEAALADQETLLIDHKNCEFKAASTALSLIAKYNTHLDLINMMSRLAREELVHHEQVLRLMKRRGVPLRPVSAGRYASGLRRLVRAHEPVKLVDTLVVGAFIEARSCERFAALVPHLDEELGRFYHGLLKSEARHYQGYLKLAHNYGDEADIARCVELVRAAEMELIQSPDQELRFHSGIPQALAA
GMSNQKHIDKIQAVIKDVKFAMISTSNKKGDIHAWPMTTSEVNLDNKEIWFIGDKTSDVVKDIQDDARIGLTYATQDEKNYVSISGDAELPTDKAKLDELWSPVYSAFFANGKEDANIQLIKVVPHGVECWLSG
GMSPTVLPATQADFPKIVDVLVEAFANDPTFLRWIPQPDPGSAKLRALFELQIEKQYAVAGNIDVARDSEGEIVGVALWDRPDGNHSAKDQAAMLPRLVSIFGIKAAQVAWTDLSSARFHPKFPHWYLYTVATSSSARGTGVGSALLNHGIARAGDEAIYLEATSTRAAQLYNRLGFVPLGYIPSDDDGTPELAMWKPPAMPTV
